Assay [1] addresses hemagglutinin-neuraminidase (HN) glycoprotein of Sendai virus (Sendai virus). Kind of assay: cell-based or functional assay.
Assay [2] has the same target. In words: flow cytometry on SV-infected 721.221 cells pre-incubated with competitor TC-1D6 (anti-HN). Background: Flow cytometry measures light scatter and fluorescence of single cells or particles in a stream.
Assay [3] has the same target. Kind of assay: flow cytometry on SV-infected 721.221 cells pre-incubated with competitor TC-9C1 (anti-HN).
For assay [4] the target is unchanged. Kind of assay: flow cytometry on SV-infected 721.221 cells pre-incubated with competitor TC-9A1 (anti-F).
For assay [5], the target named is hemagglutinin (HA) of Influenza virus A/PR/8/34 (H1N1) (Influenza virus A/PR/8/34 (H1N1)) (UniProt P03452). In words: flow cytometry on IV-infected 1106mel cells pre-incubated with competitor H17-L2 (anti-HA).
Assay [6] has the same target. In words: flow cytometry on IV-infected 1106mel cells, no mAb.
Assay [7] addresses hemagglutinin-neuraminidase (HN) glycoprotein of Sendai virus (Sendai virus). Kind of assay: flow cytometry on SV-infected 721.221 cells pre-incubated with competitor 135.7 (anti-HN).
Assay [8] has the same target. In words: flow cytometry, 293T cells transfected with Sendai HN cDNA vs mock.
The target in assay [9] is hemagglutinin (HA) of Influenza virus A/PR/8/34 (H1N1) (Influenza virus A/PR/8/34 (H1N1)) (UniProt P03452). Kind of assay: cell-based or functional assay.
The target in assay [10] is hemagglutinin-neuraminidase (HN) glycoprotein of Sendai virus (Sendai virus). In words: flow cytometry on SV-infected 721.221 cells, no mAb.
Assay [11] deals with hemagglutinin (HA) of Influenza virus A/PR/8/34 (H1N1) (Influenza virus A/PR/8/34 (H1N1)) (UniProt P03452). In words: flow cytometry, IV-infected vs uninfected 1106mel cells.
For assay [12] the target is unchanged. Kind of assay: flow cytometry on IV-infected 1106mel cells pre-incubated with competitor H28-E23 (anti-HA).
The target is the same in assay [13]. In words: flow cytometry on IV-infected 1106mel cells pre-incubated with NA2-1C1 (anti-NA, blocks neuraminidase activity).
The target in assay [14] is hemagglutinin-neuraminidase (HN) glycoprotein of Sendai virus (Sendai virus). Kind of assay: flow cytometry, SV-infected vs uninfected 721.221 cells.

These results are taken from patent US20040072256A1.

Substance “NKp46 receptor on NK cells (from UniProt O76036 22-304)” gave a lysis of HN-transfected 293T cells by NK line NK-GAL (35S-release) in [1] of over 4 fold.
As for NKp46-Ig fusion protein (Fc fusion), the MFI NKp46-Ig binding in assay [2] was found to be 14 MFI; in assay [3] it was 18 MFI; in assay [4] it was 63 MFI; in assay [5], 145 MFI; in assay [6], 441 MFI; in assay [7], 22 MFI. Further, the MFI NKp46-Ig binding was 74 MFI in [10], 63 MFI in assay [12] and 980 MFI in [13]. Moreover, the fold increase in staining on HN transfection in assay [8] was 2 fold. This substance registered a hemagglutination inhibition (IV-mediated agglutination of sheep erythrocytes) in assay [9] of 2 µM. Besides, the fold increase in binding on IV infection in assay [11] was 4 fold. The fold increase in staining on SV infection in [14] turned out to be 10 fold.
